Measured values: article PMC11648224, “RNA G-quadruplexes and calcium ions synergistically induce Tau phase transition in vitro”

Target: Tau (Tau441, 2N4R) (human, UniProt P10636-8 1-441)
Experiment: SPR; 10 mM KCl; SPR (OpenSPR): 50 mM Tris-HCl pH 7.4, 10 mM KCl; biotin-RNA on streptavidin chip, 20 ul/min, 1:1 fit; temperature not stated
Settings: protein: recombinant, tags: none stated (pET23a-human Tau441)

Sequence of Tau (Tau441, 2N4R) (P10636 other isoform, or with tags, fused parts or gaps): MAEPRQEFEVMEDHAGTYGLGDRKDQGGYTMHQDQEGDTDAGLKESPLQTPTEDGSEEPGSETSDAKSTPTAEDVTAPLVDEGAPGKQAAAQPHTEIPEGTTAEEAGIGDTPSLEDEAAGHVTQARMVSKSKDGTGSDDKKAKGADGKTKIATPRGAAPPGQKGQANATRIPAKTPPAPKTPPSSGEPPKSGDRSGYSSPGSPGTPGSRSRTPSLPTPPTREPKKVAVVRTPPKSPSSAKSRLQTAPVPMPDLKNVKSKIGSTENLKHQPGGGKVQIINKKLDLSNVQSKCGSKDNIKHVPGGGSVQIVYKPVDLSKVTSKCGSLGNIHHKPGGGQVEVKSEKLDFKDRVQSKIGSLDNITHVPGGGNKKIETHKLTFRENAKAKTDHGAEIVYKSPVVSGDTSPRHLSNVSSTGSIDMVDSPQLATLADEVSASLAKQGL

Binder | Kd | Kd (RNA G-quadruplex)
CAGCAGCAGCAGCAGCAGCAGCAG (ssRNA) [r(CAG)8] | 57.3 ± 13.9 nM | –
UUACCGUUACCGUUACCGUUACCG (ssRNA) [G4mt r(UUACCG)4] | 52.5 ± 14.3 nM | –
UUAGGGUUAGGGUUAGGGUUAGGG (structured_RNA) [G4tr r(UUAGGG)4] | – | 32.1 ± 8.38 nM
AAAAAAAAAAAAAAAAAAAAAAAA (ssRNA) [r(AAA)8] | 71.7 ± 27 nM | –
